Positions count from the first letter of the chain named.
B1: CD47单域抗体 SEQ ID NO: 9 (VHH)
VHH: AVKLVESGGGLVQPGGSLRLSCAASGFTVSNNNLRWYRQAPGKERELVAMITSAGNTNYADAVKGRSTISRDNAKNTLYLEMYRLKPEDTAVYYCWGAAHWGRGTQVTVSS
notes: His-tagged sdAb from pSJF2 in E. coli (Ni purification, anti-His detection); also called CD47纳米抗体
B2: CD47单域抗体 SEQ ID NO: 7 (VHH)
VHH: QVKLEESGGGLVQPGESLRLSCVASGFTFSDAHMRWYRQAPGKEREMVASISTTGSITIYADSVKGRFTISRDNDEKTVYLRMNSLKPEDTAAYYCRAYGFQIDSWGQGTQVTVSS
notes: as for B1
B3: CD47单域抗体 SEQ ID NO: 2 (VHH)
VHH: QVKLEESGGGLVQPGESLRLSCVASGFAFSSALMRWYRQAPGKERELVASITTAGGITGYADSVKGRFTISRDNAENTLYLQMNSLKPEDTAVYYCRAYGFQLDNWGQGTQVTVSS
notes: as for B1
B4: CD47单域抗体 SEQ ID NO: 5 (VHH)
VHH: B3 VHH with Q1G, K3Q, E5V, I51V, A54T, Q82R, Q102G, N105S
notes: as for B1
B5: CD47单域抗体 SEQ ID NO: 1 (VHH)
VHH: DVKLVESGGGLVQPGGSLRLSCAASGFTVSSYSMRWYRQVPGKERELIARITSTGQPIEYGESVKGRFTISRDNAKNTLYLEMNALKPEDTAVYYCWGAGYWGQGTQVTVSS
notes: Expressed from pSJF2 in E. coli, purified on Ni column and detected with anti-His antibody, so it carried a His tag; also called CD47纳米抗体
B6: CD47单域抗体 SEQ ID NO: 4 (VHH)
VHH: B5 VHH with K3Q, L11S, R19T, S31N, V40A, Q56V, G61A, E62D, A85G, G100A
notes: as for B1
B7: CD47单域抗体 SEQ ID NO: 8 (VHH)
VHH: B5 VHH with K3Q, V5E, V40A, I48V, Q56E, G61V, K76L, Y80N, A85D
notes: as for B1
B8: CD47单域抗体 SEQ ID NO: 10 (VHH)
VHH: GVKLVESGGGLVQPGGSLTLSCVASGFDFNSAHMRWYRQGPGKEREMVASISTTGGVTIYEDSVKGRFTISRDNADNTAYLRMNSLKPEDTAVYYCRAYGFGIDYWGQGTQVTVSS
notes: as for B1
B9: CD47单域抗体 SEQ ID NO: 3 (VHH)
VHH: HVQLEESGGGLVQPGGSLRLSCKASGLTFASYSMRWYRQAPGQERELVARLSSSGVPIEYVDSVKGRFTASRDDAKSTLYLQMNSLKPEDTAMYYCWIANYWGQGTQVTVSS
notes: as for B1
B10: CD47单域抗体 SEQ ID NO: 6 (VHH)
VHH: B9 VHH with H1Q, Q3K, K23A, A30S, S52T, V56E, V61A, D74N, L79V
notes: as for B1

Biological target: CD47抗原 (北京义翘神州, 货号12283-H08H) (UniProt Q08722)
Assay: ELISA of induced culture supernatants on CD47 antigen (clone screening)

OD值 over negative control (fold)	Binder
> 5	B1
> 5	B2
> 5	B3
> 5	B4
> 5	B5
> 5	B6
> 5	B7
> 5	B8
> 5	B9
> 5	B10

Biological target: CD47 on HL-60 cells (细胞膜表面表达的CD47抗原) (UniProt Q08722)
Assay: flow cytometry, 20 μg/ml nanobody on HL-60 cells, anti-His staining

结合率 [%]	Binder
> 99	B1
> 99	B2
> 99	B3
> 99	B4
> 99	B5
> 99	B6
> 99	B7
> 99	B8
> 99	B9
> 99	B10

Biological target: Human CD47/Biotinylated (human, UniProt Q08722 19-139, limits assumed, biotinylated (site not stated))
Assay: BLI-type kinetics, biotinylated human CD47 captured on SA probes, antibody at 73.5-588.2 nM

Human CD47/Biotinylated, sequence (Q08722 19-139 limits assumed): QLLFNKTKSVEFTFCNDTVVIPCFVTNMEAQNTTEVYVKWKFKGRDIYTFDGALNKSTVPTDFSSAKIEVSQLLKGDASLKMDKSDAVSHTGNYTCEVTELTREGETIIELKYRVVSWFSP

Kd [nM]	Binder
< 1	B1
< 1	B2
< 1	B3
< 1	B4
< 1	B5
< 1	B6
< 1	B7
< 1	B8
< 1	B9
< 1	B10

Source: CN110981959A (SHENZHEN PREGENE BIOPHARMACEUTICAL CO LTD, dated 2020)
